Measurements taken from the supplement of paper PMC6757056.
± gives the standard deviation of the averaged measurements.

B1: library; a variant is named by its letters at N, in order (parent)
chain: GCUGUCACCGGUGUAUUACCCUAGUGGUCGACCGGUCUGAUGAGUCUNNNNNNAGACGAAACAGC

Assays:
hypoxanthine [1] = variants of: B1; experiment: FACS-Seq fitted mean relative fluorescence mCherry/BFP without ligand (log10 relative fluorescence); ligand: hypoxanthine (xanthine aptamer); higher = higher reporter protein expression; conditions: HEK293T, ligand present: no
Protocol: (§1)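 Hammerhead (sTRSV) ribozyme switch libraries with a ligand aptamer grafted on stem I and a randomized N4-6 loop II, cloned into the 3' UTR of mCherry and transiently transfected into HEK293T cells; RNA-Seq 72 h post transfection with ligand added 1 h before transfection; RNA read count / plasmid DNA read count normalized to the non-cleaving sTRSVctl (x100), log10; sequences with >100 DNA reads. FACS-Seq: lentiviral library sorted into 6 bins after 48 h ligand, log-normal fit mean of mCherry/BFP scaled to controls. Printed sequences are partial switch sequences.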

hypoxanthine [2] = variants of: B1; experiment: normalized RNA/DNA level with ligand (relative to sTRSVctl = 100) (log10 (% of sTRSVctl)); ligand: hypoxanthine (xanthine aptamer); higher = less ribozyme self-cleavage, higher mRNA level; conditions: ligand concentration (+) RNA-Seq: 5 mM, HEK293T, reporter: mCherry (pCS4076), ligand present: yes
Protocol: as §1

hypoxanthine [3] = variants of: B1; experiment: normalized RNA/DNA level without ligand (relative to sTRSVctl = 100) (log10 (% of sTRSVctl)); ligand: hypoxanthine (xanthine aptamer); higher = less ribozyme self-cleavage, higher mRNA level; conditions: HEK293T, reporter: mCherry (pCS4076), ligand present: no
Protocol: as §1

hypoxanthine [4] = variants of: B1; experiment: FACS-Seq fitted mean relative fluorescence mCherry/BFP with ligand (log10 relative fluorescence); ligand: hypoxanthine (xanthine aptamer); ligand concentration (+) FACS-Seq: 5 mM; higher = higher reporter protein expression; conditions: HEK293T, ligand present: yes
Protocol: as §1

Variant	FACS-Seq fitted mean (log10) (hypoxanthine [1])	normalized RNA/DNA level with ligand (log10) (hypoxanthine [2])	normalized RNA/DNA level without ligand (log10) (hypoxanthine [3])	FACS-Seq fitted mean (log10) (hypoxanthine [4])
UAAAAA	0.315 ± 0.015	1.905 ± 0.019	1.784 ± 0.00081	0.22 ± 0.0062
UAACUG	0.142 ± 0.042	1.896 ± 0.018	1.64 ± 0.017	0.31 ± 0.084
UAACUA	0.0691 ± 0.014	1.921 ± 0.0071	1.879 ± 0.0092	-0.0104 ± 0.0014
CAAAGU	0.529 ± 0.021	1.89 ± 0.0058	1.82 ± 0.033	0.571 ± 0.0084
CAAAAG	0.0525 ± 0.066	1.87 ± 0.026	1.59 ± 0.038	0.174 ± 0.031
CAAAAA	0.52 ± 0.1	1.9 ± 0.04	1.74 ± 0.025	0.526 ± 0.038
CAAAAC	0.248 ± 0.079	1.9 ± 0.035	1.78 ± 0.028	0.0907 ± 0.058
UAAAUA	0.398 ± 0.012	1.92 ± 0.026	1.836 ± 0.002	0.49 ± 0.045
UAAAUU	0.543 ± 0.057	1.92 ± 0.024	1.85 ± 0.035	0.516 ± 0.066
UAAAUG	0.306 ± 0.023	1.936 ± 0.015	1.73 ± 0.035	0.483 ± 0.081
AAAAGG	0.163 ± 0.004	1.78 ± 0.06	1.26 ± 0.027	0.725 ± 0.056
AAAAGU	0.21 ± 0.0047	1.854 ± 0.011	1.55 ± 0.032	0.339 ± 0.09
AAAAGA	0.199 ± 0.0066	1.91 ± 0.053	1.67 ± 0.025	0.556 ± 0.061
GAAAGA	0.507 ± 0.093	1.92 ± 0.029	1.71 ± 0.033	0.581 ± 0.065
GAAAGU	0.233 ± 0.011	1.91 ± 0.022	1.752 ± 0.0063	0.17 ± 0.018
GAAAGC	0.368 ± 0.056	1.86 ± 0.028	1.39 ± 0.084	0.776 ± 0.043
GAAAGG	0.141 ± 0.013	1.74 ± 0.029	1.2 ± 0.07	0.614 ± 0.017
CAAAUC	0.445 ± 0.1	1.95 ± 0.039	1.927 ± 0.0086	0.495 ± 0.037
CAAAUA	0.317 ± 0.014	1.9 ± 0.06	1.7391 ± 0.00044	0.196 ± 0.037
AAACUU	0.777 ± 0.048	1.92 ± 0.011	1.856 ± 0.0063	0.674 ± 0.075
AAACUG	0.227 ± 0.039	1.822 ± 0.0094	1.43 ± 0.051	0.46 ± 0.021
AAAAAU	0.418 ± 0.0049	1.9 ± 0.06	1.74 ± 0.023	0.55 ± 0.021
AAAAAG	0.286 ± 0.03	1.841 ± 0.013	1.52 ± 0.036	0.588 ± 0.046
AAAAAA	0.738 ± 0.02	1.9 ± 0.042	1.8 ± 0.033	0.664 ± 0.03

Variant	FACS-Seq fitted mean (log10) (hypoxanthine [1])	normalized RNA/DNA level with ligand (log10) (hypoxanthine [2])	normalized RNA/DNA level without ligand (log10) (hypoxanthine [3])	FACS-Seq fitted mean (log10) (hypoxanthine [4])
AAACCG	0.278 ± 0.022	1.8 ± 0.029	1.37 ± 0.029	0.73 ± 0.045
AAACCA	0.0882 ± 0.014	1.924 ± 0.014	1.81 ± 0.016	0.122 ± 0.038
AAACCU	0.484 ± 0.082	1.94 ± 0.033	1.87 ± 0.02	0.2749 ± 0.00055
AAACCC	0.474 ± 0.095	1.95 ± 0.022	1.833 ± 0.0068	0.431 ± 0.021
GAAGAC	0.249 ± 0.014	1.921 ± 0.0023	1.63 ± 0.026	0.505 ± 0.069
GAAGAG	-0.121 ± 0.02	1.79 ± 0.022	1.27 ± 0.032	0.521 ± 0.037
GAAGAA	0.4206 ± 0.0035	1.9256 ± 0.00044	1.677 ± 0.013	0.5245 ± 0.001
GAACAC	0.66 ± 0.029	1.95 ± 0.029	1.74 ± 0.024	0.622 ± 0.049
GAACAA	0.477 ± 0.021	1.91 ± 0.046	1.732 ± 0.0073	0.62 ± 0.022
GAACAU	0.466 ± 0.11	1.907 ± 0.00016	1.766 ± 0.01	0.349 ± 0.12
GAACAG	0.213 ± 0.041	1.8069 ± 0.00086	1.42 ± 0.061	0.674 ± 0.014
AAAACU	0.313 ± 0.03	1.91 ± 0.093	1.8616 ± 0.00097	0.4 ± 0.12
AAAACG	0.284 ± 0.015	1.85 ± 0.053	1.43 ± 0.017	0.616 ± 0.077
AAAACA	0.709 ± 0.064	1.897 ± 0.015	1.804 ± 0.015	0.65 ± 0.023
CAACUA	0.494 ± 0.084	1.93 ± 0.029	1.709 ± 0.011	0.695 ± 0.016
CAACUU	0.257 ± 0.007	1.95 ± 0.043	1.873 ± 0.0032	0.377 ± 0.026
UAACAA	-0.143 ± 0.032	1.9154 ± 0.0012	1.7546 ± 0.00028	-0.012 ± 0.012
UAACAG	0.366 ± 0.019	1.849 ± 0.012	1.5574 ± 0.00043	0.581 ± 0.031
AAACGG	0.034 ± 0.0048	1.73 ± 0.061	1.23 ± 0.082	0.486 ± 0.027
AAACGA	0.38 ± 0.042	1.908 ± 0.0036	1.63 ± 0.046	0.5899 ± 0.0039
AAACGU	0.362 ± 0.036	1.877 ± 0.0019	1.63 ± 0.043	0.519 ± 0.03
CAACAU	0.722 ± 0.052	1.87 ± 0.032	1.75 ± 0.035	0.672 ± 0.078
CAACAC	0.465 ± 0.089	1.895 ± 0.0089	1.69 ± 0.047	0.206 ± 0.043
CAAGCA	0.544 ± 0.054	1.964 ± 0.012	1.7 ± 0.063	0.609 ± 0.094

Variant	FACS-Seq fitted mean (log10) (hypoxanthine [1])	normalized RNA/DNA level with ligand (log10) (hypoxanthine [2])	normalized RNA/DNA level without ligand (log10) (hypoxanthine [3])	FACS-Seq fitted mean (log10) (hypoxanthine [4])
CAAGCC	0.17 ± 0.076	1.96 ± 0.011	1.87 ± 0.028	0.404 ± 0.0094
GAAACU	0.54 ± 0.047	1.92 ± 0.042	1.89 ± 0.039	0.481 ± 0.042
GAAACG	0.287 ± 0.024	1.88 ± 0.023	1.51 ± 0.048	0.561 ± 0.048
GAAACC	0.401 ± 0.023	1.897 ± 0.011	1.85 ± 0.022	0.469 ± 0.033
GAAACA	0.6 ± 0.025	1.91 ± 0.047	1.857 ± 0.0049	0.389 ± 0.13
CAACGC	0.362 ± 0.014	1.92 ± 0.073	1.87 ± 0.019	0.326 ± 0.019
CAACGA	0.153 ± 0.16	1.951 ± 0.011	1.79 ± 0.036	0.353 ± 0.055
CAAACC	0.631 ± 0.0022	1.96 ± 0.046	1.867 ± 0.0027	0.622 ± 0.027
CAAGAA	0.513 ± 0.021	1.89 ± 0.03	1.7 ± 0.044	0.45 ± 0.091
CAAGAG	0.342 ± 0.095	1.86 ± 0.036	1.57 ± 0.03	0.473 ± 0.018
UAACGA	0.432 ± 0.054	1.91 ± 0.033	1.6909 ± 0.0004	0.324 ± 0.072
UAACGG	0.07847 ± 0.00013	1.82 ± 0.083	1.376 ± 0.0076	0.473 ± 0.081
UAACGC	0.329 ± 0.043	1.92 ± 0.058	1.74 ± 0.031	0.365 ± 0.011
UAACGU	0.145 ± 0.021	1.914 ± 0.01	1.61 ± 0.038	0.365 ± 0.051
GAACGG	-0.137 ± 0.019	1.74 ± 0.081	1.22 ± 0.085	0.484 ± 0.059
GAACGC	0.366 ± 0.038	1.85 ± 0.038	1.592 ± 0.0033	0.684 ± 0.031
GAACGA	0.281 ± 0.023	1.91 ± 0.049	1.62 ± 0.046	0.454 ± 0.011
GAAAUA	0.105 ± 0.023	1.92 ± 0.055	1.85 ± 0.028	0.082 ± 0.037
GAAAUG	0.0921 ± 0.028	1.86 ± 0.075	1.44 ± 0.035	0.497 ± 0.047
AAAGCA	0.391 ± 0.034	1.93 ± 0.043	1.77 ± 0.035	0.503 ± 0.023
GAACCG	0.156 ± 0.11	1.9 ± 0.08	1.48 ± 0.052	0.296 ± 0.017
GAACCA	0.493 ± 0.094	1.948 ± 0.018	1.816 ± 0.014	0.365 ± 0.0063
GAACUU	0.731 ± 0.013	1.91 ± 0.11	1.8654 ± 0.0014	0.616 ± 0.025
GAACUA	0.557 ± 0.024	1.873 ± 0.012	1.815 ± 0.0032	0.182 ± 0.072
